In patent US20200297818A1 (ZEALAND PHARMA A S, published 2020):
Where a chain is given by its changes, count along the chain named.

T1: human GLP-2 receptor (hGLP2-R) (human, UniProt O95838 1-553)
T1 sequence (looked up): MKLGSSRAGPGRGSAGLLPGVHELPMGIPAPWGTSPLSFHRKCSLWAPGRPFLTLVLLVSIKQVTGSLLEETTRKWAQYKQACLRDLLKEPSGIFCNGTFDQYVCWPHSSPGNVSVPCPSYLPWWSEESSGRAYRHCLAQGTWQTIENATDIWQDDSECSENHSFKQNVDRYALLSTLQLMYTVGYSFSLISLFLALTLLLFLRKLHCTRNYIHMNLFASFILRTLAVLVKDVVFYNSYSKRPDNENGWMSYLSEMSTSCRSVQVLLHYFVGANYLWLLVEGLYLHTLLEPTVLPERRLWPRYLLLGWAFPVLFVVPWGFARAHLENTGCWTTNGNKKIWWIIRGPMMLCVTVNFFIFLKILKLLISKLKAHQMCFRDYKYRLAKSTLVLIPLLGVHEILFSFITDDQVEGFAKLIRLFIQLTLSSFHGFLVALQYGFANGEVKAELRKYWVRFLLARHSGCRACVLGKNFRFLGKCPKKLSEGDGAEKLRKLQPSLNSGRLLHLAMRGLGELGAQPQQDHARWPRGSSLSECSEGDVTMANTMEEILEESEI

B1: Compound 21 (peptide)
peptide: HXEGTFSSELATILDXQAARDFIAWLIAHKITD
HELM: PEPTIDE1{H.[Aib].E.G.T.F.S.S.E.L.A.T.I.L.D.K.Q.A.A.R.D.F.I.A.W.L.I.A.H.K.I.T.D}|PEPTIDE2{[O=C(O)CCCCCCCCCCCCCCCCC(=O)[*:2]].[gGlu]}$PEPTIDE1,PEPTIDE2,16:R3-2:R2$$$V2.0
SMILES: CC[C@H](C)[C@H](NC(=O)[C@H](CC(C)C)NC(=O)[C@H](Cc1c[nH]c2ccccc12)NC(=O)[C@H](C)NC(=O)[C@@H](NC(=O)[C@H](Cc1ccccc1)NC(=O)[C@H](CC(=O)O)NC(=O)[C@H](CCCNC(=N)N)NC(=O)[C@H](C)NC(=O)[C@H](C)NC(=O)[C@H](CCC(N)=O)NC(=O)[C@H](CCCCNC(=O)CC[C@H](NC(=O)CCCCCCCCCCCCCCCCC(=O)O)C(=O)O)NC(=O)[C@H](CC(=O)O)NC(=O)[C@H](CC(C)C)NC(=O)[C@@H](NC(=O)[C@@H](NC(=O)[C@H](C)NC(=O)[C@H](CC(C)C)NC(=O)[C@H](CCC(=O)O)NC(=O)[C@H](CO)NC(=O)[C@H](CO)NC(=O)[C@H](Cc1ccccc1)NC(=O)[C@@H](NC(=O)CNC(=O)[C@H](CCC(=O)O)NC(=O)C(C)(C)NC(=O)[C@@H](N)Cc1c[nH]cn1)[C@@H](C)O)[C@@H](C)O)[C@@H](C)CC)[C@@H](C)CC)C(=O)N[C@@H](C)C(=O)N[C@@H](Cc1c[nH]cn1)C(=O)N[C@@H](CCCCN)C(=O)N[C@H](C(=O)N[C@H](C(=O)N[C@@H](CC(=O)O)C(=O)O)[C@@H](C)O)[C@@H](C)CC
B2: Compound 24 (peptide)
peptide: B1 peptide with T5S, S7T, A28E
HELM: PEPTIDE1{H.[Aib].E.G.S.F.T.S.E.L.A.T.I.L.D.K.Q.A.A.R.D.F.I.A.W.L.I.E.H.K.I.T.D}|PEPTIDE2{[O=C(O)CCCCCCCCCCCCCCCCC(=O)[*:2]].[gGlu]}$PEPTIDE1,PEPTIDE2,16:R3-2:R2$$$V2.0
SMILES: CC[C@H](C)[C@H](NC(=O)[C@H](Cc1ccccc1)NC(=O)[C@H](CC(=O)O)NC(=O)[C@H](CCCNC(=N)N)NC(=O)[C@H](C)NC(=O)[C@H](C)NC(=O)[C@H](CCC(N)=O)NC(=O)[C@H](CCCCNC(=O)CC[C@H](NC(=O)CCCCCCCCCCCCCCCCC(=O)O)C(=O)O)NC(=O)[C@H](CC(=O)O)NC(=O)[C@H](CC(C)C)NC(=O)[C@@H](NC(=O)[C@@H](NC(=O)[C@H](C)NC(=O)[C@H](CC(C)C)NC(=O)[C@H](CCC(=O)O)NC(=O)[C@H](CO)NC(=O)[C@@H](NC(=O)[C@H](Cc1ccccc1)NC(=O)[C@H](CO)NC(=O)CNC(=O)[C@H](CCC(=O)O)NC(=O)C(C)(C)NC(=O)[C@@H](N)Cc1c[nH]cn1)[C@@H](C)O)[C@@H](C)O)[C@@H](C)CC)C(=O)N[C@@H](C)C(=O)N[C@@H](Cc1c[nH]c2ccccc12)C(=O)N[C@@H](CC(C)C)C(=O)N[C@H](C(=O)N[C@@H](CCC(=O)O)C(=O)N[C@@H](Cc1c[nH]cn1)C(=O)N[C@@H](CCCCN)C(=O)N[C@H](C(=O)N[C@H](C(=O)N[C@@H](CC(=O)O)C(=O)O)[C@@H](C)O)[C@@H](C)CC)[C@@H](C)CC
B3: Compound 23 (peptide)
peptide: B1 peptide with S7T
HELM: PEPTIDE1{H.[Aib].E.G.T.F.T.S.E.L.A.T.I.L.D.K.Q.A.A.R.D.F.I.A.W.L.I.A.H.K.I.T.D}|PEPTIDE2{[O=C(O)CCCCCCCCCCCCCCCCC(=O)[*:2]].[gGlu]}$PEPTIDE1,PEPTIDE2,16:R3-2:R2$$$V2.0
SMILES: CC[C@H](C)[C@H](NC(=O)[C@H](CC(C)C)NC(=O)[C@H](Cc1c[nH]c2ccccc12)NC(=O)[C@H](C)NC(=O)[C@@H](NC(=O)[C@H](Cc1ccccc1)NC(=O)[C@H](CC(=O)O)NC(=O)[C@H](CCCNC(=N)N)NC(=O)[C@H](C)NC(=O)[C@H](C)NC(=O)[C@H](CCC(N)=O)NC(=O)[C@H](CCCCNC(=O)CC[C@H](NC(=O)CCCCCCCCCCCCCCCCC(=O)O)C(=O)O)NC(=O)[C@H](CC(=O)O)NC(=O)[C@H](CC(C)C)NC(=O)[C@@H](NC(=O)[C@@H](NC(=O)[C@H](C)NC(=O)[C@H](CC(C)C)NC(=O)[C@H](CCC(=O)O)NC(=O)[C@H](CO)NC(=O)[C@@H](NC(=O)[C@H](Cc1ccccc1)NC(=O)[C@@H](NC(=O)CNC(=O)[C@H](CCC(=O)O)NC(=O)C(C)(C)NC(=O)[C@@H](N)Cc1c[nH]cn1)[C@@H](C)O)[C@@H](C)O)[C@@H](C)O)[C@@H](C)CC)[C@@H](C)CC)C(=O)N[C@@H](C)C(=O)N[C@@H](Cc1c[nH]cn1)C(=O)N[C@@H](CCCCN)C(=O)N[C@H](C(=O)N[C@H](C(=O)N[C@@H](CC(=O)O)C(=O)O)[C@@H](C)O)[C@@H](C)CC
B4: Compound 22 (peptide)
peptide: B1 peptide with T5S, S7T
HELM: PEPTIDE1{H.[Aib].E.G.S.F.T.S.E.L.A.T.I.L.D.K.Q.A.A.R.D.F.I.A.W.L.I.A.H.K.I.T.D}|PEPTIDE2{[O=C(O)CCCCCCCCCCCCCCCCC(=O)[*:2]].[gGlu]}$PEPTIDE1,PEPTIDE2,16:R3-2:R2$$$V2.0
SMILES: CC[C@H](C)[C@H](NC(=O)[C@H](CC(C)C)NC(=O)[C@H](Cc1c[nH]c2ccccc12)NC(=O)[C@H](C)NC(=O)[C@@H](NC(=O)[C@H](Cc1ccccc1)NC(=O)[C@H](CC(=O)O)NC(=O)[C@H](CCCNC(=N)N)NC(=O)[C@H](C)NC(=O)[C@H](C)NC(=O)[C@H](CCC(N)=O)NC(=O)[C@H](CCCCNC(=O)CC[C@H](NC(=O)CCCCCCCCCCCCCCCCC(=O)O)C(=O)O)NC(=O)[C@H](CC(=O)O)NC(=O)[C@H](CC(C)C)NC(=O)[C@@H](NC(=O)[C@@H](NC(=O)[C@H](C)NC(=O)[C@H](CC(C)C)NC(=O)[C@H](CCC(=O)O)NC(=O)[C@H](CO)NC(=O)[C@@H](NC(=O)[C@H](Cc1ccccc1)NC(=O)[C@H](CO)NC(=O)CNC(=O)[C@H](CCC(=O)O)NC(=O)C(C)(C)NC(=O)[C@@H](N)Cc1c[nH]cn1)[C@@H](C)O)[C@@H](C)O)[C@@H](C)CC)[C@@H](C)CC)C(=O)N[C@@H](C)C(=O)N[C@@H](Cc1c[nH]cn1)C(=O)N[C@@H](CCCCN)C(=O)N[C@H](C(=O)N[C@H](C(=O)N[C@@H](CC(=O)O)C(=O)O)[C@@H](C)O)[C@@H](C)CC
B5: reference compound A (peptide)
peptide: B1 peptide with E3D, T5S, A28Q
HELM: PEPTIDE1{H.[Aib].D.G.S.F.S.S.E.L.A.T.I.L.D.K.Q.A.A.R.D.F.I.A.W.L.I.Q.H.K.I.T.D}|PEPTIDE2{[O=C(O)CCCCCCCCCCCCCCCCC(=O)[*:2]].[gGlu]}$PEPTIDE1,PEPTIDE2,16:R3-2:R2$$$V2.0
SMILES: CC[C@H](C)[C@H](NC(=O)[C@H](Cc1ccccc1)NC(=O)[C@H](CC(=O)O)NC(=O)[C@H](CCCNC(=N)N)NC(=O)[C@H](C)NC(=O)[C@H](C)NC(=O)[C@H](CCC(N)=O)NC(=O)[C@H](CCCCNC(=O)CC[C@H](NC(=O)CCCCCCCCCCCCCCCCC(=O)O)C(=O)O)NC(=O)[C@H](CC(=O)O)NC(=O)[C@H](CC(C)C)NC(=O)[C@@H](NC(=O)[C@@H](NC(=O)[C@H](C)NC(=O)[C@H](CC(C)C)NC(=O)[C@H](CCC(=O)O)NC(=O)[C@H](CO)NC(=O)[C@H](CO)NC(=O)[C@H](Cc1ccccc1)NC(=O)[C@H](CO)NC(=O)CNC(=O)[C@H](CC(=O)O)NC(=O)C(C)(C)NC(=O)[C@@H](N)Cc1c[nH]cn1)[C@@H](C)O)[C@@H](C)CC)C(=O)N[C@@H](C)C(=O)N[C@@H](Cc1c[nH]c2ccccc12)C(=O)N[C@@H](CC(C)C)C(=O)N[C@H](C(=O)N[C@@H](CCC(N)=O)C(=O)N[C@@H](Cc1c[nH]cn1)C(=O)N[C@@H](CCCCN)C(=O)N[C@H](C(=O)N[C@H](C(=O)N[C@@H](CC(=O)O)C(=O)O)[C@@H](C)O)[C@@H](C)CC)[C@@H](C)CC

Experiments:
[1] = target: human glucagon-like peptide 1 receptor (GLP-1 R) (human, UniProt P43220 24-463); test: cell-based or functional assay
[2] = target: T1, human GLP-2 receptor (hGLP2-R); test: cell-based or functional assay

| Binder | EC50 GLP-1 (nM); cAMP response [1] [nM] | EC50 GLP-2 (nM); cAMP response [2] [nM] |
| --- | --- | --- |
| B1 | 1.8 | 0.27 |
| B2 | 0.21 | 0.17 |
| B3 | 0.13 | 0.24 |
| B4 | 0.23 | 0.2 |
| B5 | 0.49 | 0.083 |
